Measured values: paper PMC11969024 (2025)

B1: peptide HD2 (from tick evasin EVA4) / CCL4 (biotinylated, synthetic) (parent complex)
chain 1: EEDDYTAYAPLTCYFT
chain 2: APMGSDPPTACCFSYTARKLPRNFVVDYYETSSLCSQPAVVFQTKRSKQVCADPSESWVQEYVYDLELN

Variants of: B1

In order of rising enrichment:
1. chain 1 EEDDYTAYAPLTEYFT  -9.5 log2 (difference from the parental peptide)
2. chain 1 EEDDCTAYAPLTCYFT  -8.73 log2 (difference from the parental peptide)
3. chain 1 EEDDYTAYAPLTKYFT  -8.69 log2 (difference from the parental peptide)
4. chain 1 EEDDYTALAPLTCYFT  -7.61 log2 (difference from the parental peptide)
5. chain 1 EEDDYTAYPPLTCYFT  -7.37 log2 (difference from the parental peptide)
6. chain 1 EEDDYTAYAPLTCPFT  -6.84 log2 (difference from the parental peptide)
7. chain 1 EEDDPTAYAPLTCYFT  -6.3 log2 (difference from the parental peptide)
8. chain 1 EEDDYTATAPLTCYFT  -6.05 log2 (difference from the parental peptide)
9. chain 1 EEDDYTAYLPLTCYFT  -6 log2 (difference from the parental peptide)
10. chain 1 EEDDSTAYAPLTCYFT  -5.86 log2 (difference from the parental peptide)
11. chain 1 EEDDYTAEAPLTCYFT  -5.75 log2 (difference from the parental peptide)
12. chain 1 EEDKYTAYAPLTCYFT  -5.45 log2 (difference from the parental peptide)
13. chain 1 EEDDYTAYAPLTCDFT  -5.1 log2 (difference from the parental peptide)
14. chain 1 EEDDYTAYAQLTCYFT  -4.96 log2 (difference from the parental peptide)
15. chain 1 EEDDYTAYAPLTTYFT  -4.09 log2 (difference from the parental peptide)
16. chain 1 EEDDYTAYNPLTCYFT  -4.06 log2 (difference from the parental peptide)
17. chain 1 EEDDYTAYAPLTCAFT  -3.96 log2 (difference from the parental peptide)
18. chain 1 EKDDYTAYAPLTCYFT  -3.72 log2 (difference from the parental peptide)
19. chain 1 EEDDYTAYKPLTCYFT  -3.61 log2 (difference from the parental peptide)
20. chain 1 EEDDYTAYAPLTCSFT  -3.51 log2 (difference from the parental peptide)
21. chain 1 EEDDYTAYAPLTCNFT  -3.47 log2 (difference from the parental peptide)
22. chain 1 EEDAYTAYAPLTCYFT  -3.33 log2 (difference from the parental peptide)
23. chain 1 EEDDYTAYAPLTCQFT  -2.97 log2 (difference from the parental peptide)
24. chain 1 EEDDYTASAPLTCYFT  -2.96 log2 (difference from the parental peptide)
25. chain 1 EEDDYTAYADLTCYFT  -2.89 log2 (difference from the parental peptide)
26. chain 1 ETDDYTAYAPLTCYFT  -2.75 log2 (difference from the parental peptide)
27. chain 1 EETDYTAYAPLTCYFT  -2.72 log2 (difference from the parental peptide)
28. chain 1 EEDDYTAYAPLTMYFT  -2.33 log2 (difference from the parental peptide)
29. chain 1 EEDDYTAYRPLTCYFT  -1.96 log2 (difference from the parental peptide)
30. chain 1 EEDPYTAYAPLTCYFT  -1.94 log2 (difference from the parental peptide)
31. chain 1 ELDDYTAYAPLTCYFT  -1.83 log2 (difference from the parental peptide)
32. chain 1 EEDDYTVYAPLTCYFT  -1.76 log2 (difference from the parental peptide)
33. chain 1 EEHDYTAYAPLTCYFT  -1.73 log2 (difference from the parental peptide)
34. chain 1 PEDDYTAYAPLTCYFT  -1.59 log2 (difference from the parental peptide)
35. chain 1 EEDDYTAYAPLTCYET  -1.26 log2 (difference from the parental peptide)
36. chain 1 EEYDYTAYAPLTCYFT  -1.16 log2 (difference from the parental peptide)
37. chain 1 EEDDYTAYAPLTCYNT  -0.875 log2 (difference from the parental peptide)
38. chain 1 EEDYYTAYAPLTCYFT  -0.805 log2 (difference from the parental peptide)
39. chain 1 EEDDYTAYAPLTCYFW  -0.489 log2 (difference from the parental peptide)
40. chain 1 EEDDYRAYAPLTCYFT  -0.342 log2 (difference from the parental peptide)
41. chain 1 EEDDYTLYAPLTCYFT  -0.0909 log2 (difference from the parental peptide)
42. chain 1 EEDDYTAYAPLDCYFT  -0.0833 log2 (difference from the parental peptide)
43. chain 1 EEDDYTAYAPLTCYFF  -0.0684 log2 (difference from the parental peptide)
44. chain 1 EEDDYTAYAPLTCYFC  -0.0497 log2 (difference from the parental peptide)
45. chain 1 EEDDYTAYAPLTCYYT  0.0726 log2 (difference from the parental peptide)
46. chain 1 EEDDYWAYAPLTCYFT  0.361 log2 (difference from the parental peptide)
47. chain 1 EEDDFTAYAPLTCYFT  0.426 log2 (difference from the parental peptide)
48. chain 1 EEDDYQAYAPLTCYFT  0.872 log2 (difference from the parental peptide)
49. chain 1 EEDDYTPYAPLTCYFT  1.22 log2 (difference from the parental peptide)
50. chain 1 EEDDYTAYAPLTCYTT  1.23 log2 (difference from the parental peptide)
51. chain 1 EEDDYTAYAPLNCYFT  1.46 log2 (difference from the parental peptide)
52. chain 1 EEDDYTAYAPLTCYFA  1.47 log2 (difference from the parental peptide)
53. chain 1 EEDDYTKYAPLTCYFT  1.68 log2 (difference from the parental peptide)
54. chain 1 EEDDYTAYAPHTCYFT  1.71 log2 (difference from the parental peptide)
55. chain 1 EEDDYTAYAPLYCYFT  2.43 log2 (difference from the parental peptide)
56. chain 1 EEDDYSAYAPLTCYFT  2.87 log2 (difference from the parental peptide)
